PMC6434538
Where two headings read alike, the source gives them in different places.

How the values were obtained:
[1] = target: T1, RIG-I wild type (UniProt O95786 1-925); test: fluorescence intensity titration
T1 sequence: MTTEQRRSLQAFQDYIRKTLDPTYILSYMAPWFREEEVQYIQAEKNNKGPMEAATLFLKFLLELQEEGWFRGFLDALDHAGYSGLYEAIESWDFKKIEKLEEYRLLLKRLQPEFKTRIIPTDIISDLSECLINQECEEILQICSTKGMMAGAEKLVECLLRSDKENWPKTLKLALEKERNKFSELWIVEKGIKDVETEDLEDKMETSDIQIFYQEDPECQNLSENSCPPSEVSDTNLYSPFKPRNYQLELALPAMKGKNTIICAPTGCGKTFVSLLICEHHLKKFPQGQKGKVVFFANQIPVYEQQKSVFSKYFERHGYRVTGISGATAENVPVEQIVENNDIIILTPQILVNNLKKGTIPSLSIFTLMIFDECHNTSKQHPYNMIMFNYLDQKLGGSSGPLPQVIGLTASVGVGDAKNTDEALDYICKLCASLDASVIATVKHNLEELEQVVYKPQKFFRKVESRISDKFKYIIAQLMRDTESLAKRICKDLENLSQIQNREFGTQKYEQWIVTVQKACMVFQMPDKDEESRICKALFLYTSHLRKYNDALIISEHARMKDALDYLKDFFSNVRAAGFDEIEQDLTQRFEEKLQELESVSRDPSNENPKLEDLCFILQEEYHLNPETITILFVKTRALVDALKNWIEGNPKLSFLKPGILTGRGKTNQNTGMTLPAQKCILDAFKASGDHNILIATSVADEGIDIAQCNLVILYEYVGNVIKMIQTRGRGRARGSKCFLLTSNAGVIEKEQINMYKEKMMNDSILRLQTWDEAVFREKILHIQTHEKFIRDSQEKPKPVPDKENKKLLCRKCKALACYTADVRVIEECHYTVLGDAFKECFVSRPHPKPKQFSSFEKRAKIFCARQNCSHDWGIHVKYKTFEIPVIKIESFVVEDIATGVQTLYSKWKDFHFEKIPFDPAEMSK

[2] = target: T1, RIG-I wild type; test: fluorescence intensity titration; remark: listed apart in the source
[3] = target: T1, RIG-I wild type; test: ATPase titration or fluorescence titration

B1: 3'ovg dsRNA (dsRNA)
RNA 1: ACGUCCUGAUAGUUAGUAUCCAUCG
RNA 2: CGAUGGAUACUAACUAUCAGGACGUAU
modifications: 5'OH
For B1, the binding signal [1] was 50 fold higher Kd than 5'ppp dsRNA and the binding signal [2] was 7 fold higher Kd than 5'ppp dsRNA.

B2: 5'OH dsRNA 27 bp (dsRNA)
RNA 1: AUACGUCCUGAUAGUUAGUAUCCAUCG
RNA 2: CGAUGGAUACUAACUAUCAGGACGUAU
modifications: 5'OH
B2 was tested, and the binding signal [2] was 1.5 fold higher Kd than 5'ppp dsRNA.

B3: 5'ppp dsRNA 27 bp (dsRNA)
RNA 1: AUACGUCCUGAUAGUUAGUAUCCAUCG
RNA 2: CGAUGGAUACUAACUAUCAGGACGUAU
modifications: 5'-triphosphate on strand 1
In the case of B3, the Kd [3] is reported as 2.5 nM.
